Test results taken from article PMC6450558.

Substrate: CC(=O)N[C@H]1[C@H]([C@H](O)[C@H](O)CO)O[C@](OP(=O)(O)OC[C@H]2O[C@@H](n3ccc(N)nc3=O)[C@H](O)[C@@H]2O)(C(=O)O)C[C@@H]1O
Assay: sialyltransferase kinetics, donor varied
Format: biochemical, Homo sapiens
Settings: acceptor LacNAc-butyl (11), fixed concentration

B1: human ST3Gal-IV (Homo sapiens) (protein)
chain: MVSKSRWKLLAMLALVLVVMVWYSISREDRYIELFYFPIPEKKEPCLQGEAESKASKLFGNYSRDQPIFLRLEDYFWVKTPSAYELPYGTKGSEDLLLRVLAITSSSIPKNIQSLRCRRCVVVGNGHRLRNSSLGDAINKYDVVIRLNNAPVAGYEGDVGSKTTMRLFYPESAHFDPKVENNPDTLLVLVAFKAMDFHWIETILSDKKRVRKGFWKQPPLIWDVNPKQIRILNPFFMEIAADKLLSLPMQQPRKIKQKPTTGLLAITLALHLCDLVHIAGFGYPDAYNKKQTIHYYEQITLKSMAGSGHNVSQEALAIKRMLEMGAIKNLTSF
For B1, the Km was 300 ± 66 µM, the kcat was 0.0233 ± 0.00167 s⁻¹ and the kcat/Km was 78.3 ± 25 M⁻¹ s⁻¹.

B2: human ST6Gal-I (Homo sapiens) (protein)
chain: MIHTNLKKKFSCCVLVFLLFAVICVWKEKKKGSYYDSFKLQTKEFQVLKSLGKLAMGSDSQSVSSSSTQDPHRGRQTLGSLRGLAKAKPEASFQVWNKDSSSKNLIPRLQKIWKNYLSMNKYKVSYKGPGPGIKFSAEALRCHLRDHVNVSMVEVTDFPFNTSEWEGYLPKESIRTKAGPWGRCAVVSSAGSLKSSQLGREIDDHDAVLRFNGAPTANFQQDVGTKTTIRLMNSQLVTTEKRFLKDSLYNEGILIVWDPSVYHSDIPKWYQNPDYNFFNNYKTYRKLHPNQPFYILKPQMPWELWDILQEISPEEIQPNPPSSGMLGIIIMMTLCDQVDIYEFLPSKRKTDVCYYYQKFFDSACTMGAYHPLLYEKNLVKHLNQGTDEDIYLLGKATLPGFRTIHC
B2 showed a Km of 119 ± 16 µM, a kcat of 0.183 ± 0.00667 s⁻¹ and a kcat/Km of 1530 ± 417 M⁻¹ s⁻¹.
